The data set deals with the molecule itself. The data set can be described thus: SEC. (In general: Size exclusion chromatography separates by hydrodynamic size, large species first.)

B1: murine hexosaminidase D, short form (enzyme, mouse, UniProt Q3U4H6 1-486, looked up)
chain: MSSPTPFKMRLVHLDLKGAPPKVSYLSEVFPLFHALGANGLLIEYEDMFPYEGHLRLLRAKHAYSPSEVTEILRLARLSELEVIPLVQTFGHMEFVLKHAAFAHLREVALFPNTLNPHEAESLALVQAMIDQILELHRDVRWLHIGCDEVYYLGEGETSKQWLQQEQNSHAKLCLSHMQAVASHVLTQHPGVTPLVWDDMLRDIPQEQLKASGVPQLVEPVLWDYGADLDVHGKVFLIGKYQECGFQRLWAASAFKGATGASQALPPVEHHIRNHELWLQVAGSGPKDALQGIILTGWQRYDHFSVLCELLPVGIPSLAACLQSLVHGGFAEDVRLRAERFLGVSSLEIADTVSEGAGSFPGSDIHALVTQISLHLRSSVDTLLERNRYVTGWFSPYHRRRKLVHPVMIQHIQPEALSLLSRWNNLVQQLEVALQPVFYPDTIEEWLEENVLPSLQRLQDLLQDLGEAAARQPPPTSPGWDTGQNP
Regarding B1, the stoichiometry N (as a rule, a count of units in the complex or per binding partner) is 2.

The values are drawn from paper PMC2850170 (The Biochemical journal, 2009).
